B1: entire unstructured N-terminal region (including the YG domain) of Arabidopsis thaliana PEX13, amino acids 1–193 (domain or fragment)
chain: MASQPAGGSPPKPWEKEGNTSGPNPFRPPSNTSTAGSVEASGTANPGEVVPPPVNRPNTAANMNSLSRPVPARPWEQQNYGSTMGGGYGSNLGMTSGYGSGTYGSALGGYGSSYGGGMYGGSSMYRGGYGGGGLYGSSGMYGGGAMGGYGGTMGGYGMGMGTGMGMGMGMGMGGPYGSQDPNDPFNQPPSPPGC
notes: PEX13 of Arabidopsis thaliana, GenBank NP_187412.1, amino acids 1-193; single engineered cysteine at the C terminus for covalent derivatization; In the permeation assay it stood as a hydrogel droplet formed at 40 mg/ml (2 mM); also called N-terminal fragment; full-length fragment; source: E. coli BL21 Rosetta 2(DE3), purified under denaturing conditions (Ni-NTA), tag removed with TEV protease; …

How the values were obtained:
[1] = target: the molecule itself; assay: hydrogel formation (gelation); purified fragment concentrated to 40 mg/ml (2 mM) in 2 M urea, 50 mM HEPES-NaOH pH 8.0, 1 mM TCEP, 1 mM EDTA, left in silicone tubing at room temperature, squeezed out and photographed
[2] = target: B1; assay: hydrogel permeation assay (confocal microscopy); droplets of the PEX13 1-193 hydrogel (40 mg/ml) in 25 mM HEPES-KOH pH 7.8, 130 mM KCl; GFP fusion proteins or GFP alone added at 500 nM; enrichment inside the gel over buffer after 30 min; settings: both partners purified

fold enrichment inside the gel over buffer [2] [fold] | Binder | binding result [1]
 | B1 | binds
 | isolated YG domain of Arabidopsis thaliana PEX13, amino acids 76–193 (domain or fragment, PEX13 of Arabidopsis thaliana, GenBank NP_187412.1, amino acids 76-193 (YG domain); single engineered cysteine at the C terminus for covalent derivatization; also called YG domain alone; source: E. coli BL21 Rosetta 2(DE3), purified under denaturing conditions (Ni-NTA), tag removed with TEV protease; not shown: 14×His, N-terminal, cleaved) EQQNYGSTMGGGYGSNLGMTSGYGSGTYGSALGGYGSSYGGGMYGGSSMYRGGYGGGGLYGSSGMYGGGAMGGYGGTMGGYGMGMGTGMGMGMGMGMGGPYGSQDPNDPFNQPPSPPGC | binds
~20 | full-length PEX5 fused to GFP (receptor, C-terminal GGSGGS linker and mEGFP left out) not shown | 

— PMC9795577, “Protein import into peroxisomes occurs through a nuclear pore-like phase” (Science (New York, N.Y.), 2022)
